Assay results reported in PMC4156332.

Biological target: recombinant wild type echinenone-binding protein from Evechinus chloroticus (apo-rEBP) (Evechinus chloroticus)
Assay: SEC; HiPrep 16/60 Sephacryl S-100 HR gel-permeation column, non-reducing conditions, 50 mM HEPES pH 8.0, 0.1 M NaCl, 10% v/v glycerol; final purification step; molecular weights estimated from the manufacturer's column standard curve

With “recombinant wild type echinenone-binding protein from Evechinus chloroticus (apo-rEBP) (natural protein)” the stoichiometry N was 2.
